Laboratory results: doi:10.1101/2021.08.10.455837

Biological target: human HBEGF (human) (UniProt Q99075)
Sequence of UniProt Q99075 (Q99075 20-208): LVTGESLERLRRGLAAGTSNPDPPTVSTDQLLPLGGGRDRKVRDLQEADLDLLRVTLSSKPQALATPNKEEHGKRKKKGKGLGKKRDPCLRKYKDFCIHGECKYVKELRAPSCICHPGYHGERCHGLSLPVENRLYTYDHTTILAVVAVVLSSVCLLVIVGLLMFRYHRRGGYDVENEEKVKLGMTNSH

Diphtheria toxin (from UniProt P00588 33-567) (natural protein)
EC50 of toxicity (dose titration) on WT ARN8 cells (basal levels of HBEGF): 0.026 nM
